Laboratory results taken from the DeepSol protein solubility set.

Test: soluble on expression in E. coli; label from the status in PepcDB or PDB records

Sequence | soluble on expression in E. coli
MPMNTTGMSFSSFGISCHRENSFRNSFRGKNDEVVKCSIGERTISFSVRKFSGNILETVRRQSTKDIDEWIKDERIVYPSRVINQEIDNYCFQKNAKISTEERQRVFFLVSQENQLTLDVKAAQSSINHVIMGSASFGKKMDALCDGMSRDVKNRTSDTIANLLADKFYQKHIDSDIDIVKLRNDIPDYLMRAIQG | not soluble
MPMRYWLMKSEPDETSIDHLAAEPARLFEWTGVRNYQARNFMRDDMQPGDLLLFWHSSCPEPGIAGIAEVAAAAHADSSQFDPASPYHDPKSDPADPRWLCVDVRFVRKTRLLPPAELRRHPPLEGMTVLKRGNRLSITPVTAEEWAYLMDLLDIRRAGLEHHHHHH | soluble
MPNKISGSIAPSASSDAMKSADCAENIKEEVVSKHVHQAVPAELADLPSRQPPRSKTALYQVIQKFRDPLPLPPPPTSHPVLAYDRDLGSSDNFRSSDEFDLPESLNPTGWKNLHVSGSGSIASIGQITRLRPSKERPVVVLDAREESHAIVGGYPGTWRTPNNWGNAGKSRDEALADEQQRIQALKSQETVHIFHRKDVKSEARNPRGATLSKPLIFSEEELVRAAGAKYVRLTVTDHLSPRADDIDAFIAMEREMAHDERLHVHCGMGLGRTTIFIVMHDILRNAAMLSFDDIIERQRKFNPGRSLDNNKDVSDKGRSEFRNERSEFLPLFYEYAKQNPKGQPLLWSEWLDHNA | not soluble
MPNPRRIVFGDVHGHFDALTALFEAIAPNERDGVYFVGDLIDRGPESAKVVDFVMENKYHCLLGNHEQMMLDAVGGFNFSPQLLHAWIYSGGKSTLESYEHQIPQSHVDWMRNLPLYLDLGDVWLVHAGVDPRLPIEEQGEAQFCWIRDEFHRYPYPYFANKLIITGHTITFTFANVEPGKLVSGPGWLDIDTGAYHPKSGWLTALELNNQEVYQAHIFTNEVRRLPLEDAVVPLEHHHHHH | soluble
MPNQGSSNKVYVIGVGMTKFEKPGRREGWDYPDMARESGTKALRDAGIDYREVEQGYVGYVYGESTSGQRALYELGMTGIPIVNVNNNCSTGSTALYLGAQAIRGGLADCVLALGFEKMQPGALGGGADDRESPLGRHVKALAEIDEFGFPVAPWMFGAAGREHMKKYGTTAEHFAKIGYKNHKHSVNNPYAQFQDEYTLDDILASKMISDPLTKLQCSPTSDGSAAVVLASEDYLANHNLAGRAVEIVGQAMTTDFASTFDGSARNIIGYDMTVQAAQRVYQQSGLGPKDFGVIELHDCFSANELLLYEALGLCGPGEAPELIDDNQTTYGGRWVVNPSGGLISKGHPLGATGLAQCAELTWQLRGTAEARQVDNVTAALQHNIGLGGAAVVTAYQRAER | not soluble
MPPIPSRARVYAEVNPSRPREYWDYEAHMIEWGQIDDYQLVRKLGRGKYSEVFEGFKMSTDEKVVVKILKPVKKKKIKREIKILENLRGGTNIITLLDVVKDPISRTPALIFEHVNNSDFKQLYQTLSDYDIRYYLYELLKALDFCHSQGIMHRDVKPHNVMIDAEKRELRLIDWGLAEFYHPRQDYNVRVASRYFKGPELLVDYQCYDYSLDMWSLGCMLASMIFRKEPFFHGHDNYDQLVRIAKVLGTDELYEYIARYHIDLDPRFNDILGRHSRKRWERFIHAENQHLVTPEALDFLDKLLRYDHAERLTAQEAMGHEYFRPVVEAHARANGTEQADGQGASNSASSQSSDAKIDGA | not soluble
MPPLFHPHLVNGPFDDPGLYVDFLFERRAVLFDLGDTAPLPPRKVLRLSHIFVSHTHVDHFIGFDRVVRLCLGREKRLHLLGPPGFVDQVAARLAGYTWNLVETFPTDFTLAAAELHPDGSVHSAEFHCLAAFSRDNERRDRAAGGVLLDEEAFRVRSVFLDHGIPCLAFALEEKNHVHILKNRLREAGLPTGAWLAELKRAILGGRDDGEPFRAWWRDGGKECEAWFPLGELRERFTKTVAGQKIVYVTDAAPTPENRRLIVELAAGADYLFIEAPFLDEERERAGDRCHLTARIAGELGRDAGVARVVPFHFSPRYMGRESLLRDEVERAFRGLEHHHHHH | not soluble
MPPRKIKKDPAVVAMADTLETRVKDLLEEYKKKLREVALQTAKAESDRIIATIKPKYRDMPIMEFLASPPDDFYIESGEEEEEGEAAVAVKQELPSEPDMEIDDAAAAQKTSIPIGQNSGRNTVQVKQEPEIDDDAAHETSIPIAPSGQNSGRNTAADEHRRNEIITPAGQVLPLPTLQPEKPFRAPHVDEEIAFSVNGSPLVLAGRTTATAAGKENRKKSKKSGAASKKAAAAAGPLQPETENAGTSV | not soluble
MPQSFTSIARIGDYILKSPVLSKLCVPVANQFINLAGYKKLGLKFDDLIAEENPIMQTALRRLPEDESYARAYRIIRAHQTELTHHLLPRNEWIKAQEDVPYLLPYILEAEAAAKEKDELDNIEVSK | soluble
MPRISKRQLILESAAAIINEKGADYLTLDAVAQRAGISKGGLFYHFKSKDELIKELVNYANNLYRDNVNQHIGNEKNKKGQWLNAFIEATRAHRTDNAPITSGMLAAQGTNRSLLSPLKTSYQEWQYQITHDGLDEVDATIIRLAVDGLWLSEIFGISAIDEEMREKVIERLKMQIEKN | not soluble
MPRPSQRLLSPEIITEAAMRMVDLTGDFTMPGLAERLKVRPSSLYNHVSGRAEIIELMRARMMAGIVVADPDGKWSETVAGLAREYRRNYAEHPRLIPLFTAHTVQSGVAFGLYNALAQAFSDGGFTPEEILHAITTVDSFVLGSALDLAAPEVVWATAPEANEAMLAALATSGPNPGRADAAFEFGLRTLIAGLVAQAPIEP | not soluble
MPRSTWFKALLLLVALWAPLSQAETGWQPIQETIRKSDKDNRQYQAIRLDNGMVVLLVSDPQAVKSLSALVVPVGSLEDPEAYQGLAHYLEHMSLMGSKKYPQADSLAEYLKMHGGSHNASTAPYRTAFYLEVENDALPGAVDRLADAIAEPLLDKKYAERERNAVNAELTMARTRDGMRMAQVSAETINPAHPGSKFSGGNLETLSDKPGNPVQQALKDFHEKYYSANLMKAVIYSNKPLPELAKMAADTFGRVPNKESKKPEITVPVVTDAQKGIIIHYVPALPRKVLRVEFRIDNNSAKFRSKTDELITYLIGNRSPGTLSDWLQKQGLVEGISANSDPIVNGNSGVLAISASLTDKGLANRDQVVAAIFSYLNLLREKGIDKQYFDELANVLDIDFRYPSITRDMDYVEWLADTMIRVPVEHTLDAVNIADRYDAKAVKERLAMMTPQNARIWYISPKEPHNKTAYFVDAPYQVDKISAQTFADWQKKAADIALSLPELNPYIPDDFSLIKSEKKYDHPELIVDESNLRVVYAPSRYFASEPKADVSLILRNPKAMDSARNQVMFALNDYLAGLALDQLSNQASVGGISFSTNANNGLMVNANGYTQRLPQLFQALLEGYFSYTATEDQLEQAKSWYNQMMDSAEKGKAFEQAIMPAQMLSQVPYFSRDERRKILPSITLKEVLAYRDALKSGARPEFMVIGNMTEAQATTLARDVQKQLGADGSEWCRNKDVVVDKKQSVIFEKAGNSTDSALAAVFVPTGYDEYTSSAYSSLLGQIVQPWFYNQLRTEEQLGYAVFAFPMSVGRQWGMGFLLQSNDKQPSFLWERYKAFFPTAEAKLRAMKPDEFAQIQQAVITQMLQAPQTLGEEASKLSKDFDRGNMRFDSRDKIVAQIKLLTPQKLADFFHQAVVEPQGMAILSQISGSQNGKAEYVHPEGWKVWENVSALQQTMPLMSEKNE | soluble
MPSARLQQQFIRLWQCCEGKSQDTTLNELAALLSCSRRHMRTLLNTMQDRGWLTWEAEVGRGKRSRLTFLYTGLALQQQRAEDLLEQDRIDQLVQLVGDKATVRQMLVSHLGRSFRQGRHILRVLYYRPLRNLLPGSALRRSETHIARQIFSSLTRINEENGELEADIAHHWQQISPLHWRFFLRPGVHFHHGRELEMDDVIASLKRINTLPLYSHIADIVSPTPWTLDIHLTQPDRWLPLLLGQVPAMILPREWETLSNFASHPIGTGPYAVIRNSTNQLKIQAFDDFFGYRALIDEVNVWVLPEIADEPAGGLMLKGPQGEEKEIESRLEEGCYYLLFDSRTHRGANQQVRDWVSYVLSPTNLVYFAEEQYQQLWFPAYGLLPRWHHARTIKSEKPAGLESLTLTFYQDHSEHRVIAGIMQQILASHQVTLKIKEIDYDQWHTGEIESDIWLNSANFTLPLDFSVFAHLCEVPLLQHCIPIDWQADAARWRNGEMNLANWCQQLVASKAMVPLLHHWLIIQGQRSMRGLRMNTLGWFDFKSAWFAPPDP | not soluble
MPSEPGKNMIQHAGLGYRRDLAEDFLSLSENSPICFIEAAPENWLKMGGWARKQFDRVAERLPLALHGLSMSLGGQAPLDTDLIDGIKEMMRRYDCTFFSDHLSYCHDGGHLYDLLPLPFTEEMVHHTARRIREVQDRLGCRIAVENTSYYLHSPLAEMNEVEFLNAVAREADCGIHLDVNNIYVNAVNHGLLSPEAFLENVDAERVCYIHIAGHDVETPELLIDTHGAAVLPTVWDLLELAYAKLPTIPPTLLERDFNFPPFSELEAEVAKIADYQTRAGKECRRAA | not soluble
MPSGLFMDLLPFLLDANLSATNPPAIPHWWKRQPLIPNLLSQELKNYLKLNVKEKNIQIADQVIIDETAGEVVIGANTRICHGAVIQGPVVIGANCLIGNWICPYISRHLLSLNPLQARCRRYSRGERLEHHHHHH | not soluble
MPSIDIDEDTSVETTTMTETPTLDLNAKVEIINFINTFDVKGNCYLYHEGEEKLVSTLLRPDDRKRISLMKELEEARTIRQLHKTRLFKDHPFLKKQKRIILLPYSSISKSHMQTSHYSEREINRTKIINTFWKSKLELHYDAAEASILVCSFLAQNIDRNTHGLGISQSKIAIVLGMSLRRVSDTLNRLEQLGYVRRYTEKAKRGKLSLGTFIQVTENFSSQFLPPKKIVGESEEKQKQGSEHQPQDPPEKHYFQFLQSLNDLRLELKNFIVNSEEPIPPVVLQQIFKVL | not soluble
MPSLFSEDKLPALTYHCSVELNGNIYIFGGLMPCYSYEEDAPMLNDFFVDGIKNLPPPLLPQVINNPSMVNNPHLYVASIPSCRFSKPKMGGYIPPPLLCVQGSKLTDRHIFFYGGFEIRTETRGDENGKYHLKKRLYVNNTGYILDIMSFKF | not soluble
MPSPARRSRRRRSSLLNFSFSEVDLEQQRRALEMFEQQMNDQAFAQLIHDHDVQHINNDANQVPAAPNTPPVPVPPPVQQPQASPNASPVSVLRRRRYANPEQERFGDISRRIHNPANQIPAAPNTQPEVPPTVQQPESSSQERASPTSPEITIFSTGLLGLRRRSSARISIRMSATAQTNLPITPIRRRRGRAVSPILEIEFENLSSSSSGTSGDSGNHSSPTNTNDQSFIGDDARTYDQEHVPIDFEGPSTSTGITDRHPRRRNQDGSHGECTMCFEVPVSPLGCNNCLQIIGCEECVDIWYRSSSKPSCPLCRRKWARKPDVSKMSVISVRKQSSLRRSKRRITSK | not soluble
MPSSGRGGAFFPDPCVFHGAYLPSGSSRWAKESTMFFIAKYKRNTEWLKMIFSNALHGVQEGSGFEWKAFVTLMPTELRVVSLSQELLRLWLVISYTVRDVRTYFFP | not soluble
MPSVPRVDRLKPIYTAAKALNFGWRFSDFLKIPAYNGISRYTNQLHRITVRFCKQSESSVGVRNFIENQLVEIGRKNPSVVIYAQPVRNSNPSIRAEYGNGRTLQINAKNMTQDEVSKDVHLLFSRSGEPVVKLESRQSALVPSIQGQWTPITWLPTEMNTEQLPAKQFSKHKSTATSATEYILQNPPK | not soluble
